Laboratory results: patent publication US20060258570A1

Molecular target: fibrinogen
Assay: cell-based or functional assay

Final Abs (405 nm) of thrombin-induced clot at [Decorin] 0.2 mM: 0.16 Abs 405 nm
Final Abs (405 nm) of thrombin-induced clot at [Decorin] 0.4 mM: 0.145 Abs 405 nm
Final Abs (405 nm) of thrombin-induced clot at [Decorin] 1.0 mM: 0.12 Abs 405 nm
Final Abs (405 nm) of thrombin-induced clot at [Decorin] 2.0 mM: 0.113 Abs 405 nm
Rate (mAbs/min) of thrombin-induced clotting at [Decorin] 0.2 mM: 61.8 mAbs/min
Rate (mAbs/min) of thrombin-induced clotting at [Decorin] 0.4 mM: 55 mAbs/min
Rate (mAbs/min) of thrombin-induced clotting at [Decorin] 1.0 mM: 38.8 mAbs/min
Rate (mAbs/min) of thrombin-induced clotting at [Decorin] 2.0 mM: 34.5 mAbs/min
Substance: decorin core protein
